Assay results taken from the nanobody polyreactivity screen of Harvey et al. (2022).

Test: yeast display, Sf9 membrane polyspecificity reagent, FACS + sequencing; frameworks hold sequencing errors
How it was run: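 After 36–48 hours of galactose induction, yeast (Saccharomyces cerevisiae BJ5465) displaying a synthetic nanobody library were stained at 4 °C for 1 hour with 10% biotinylated, detergent-solubilized Sf9 membrane reagent. Streptavidin microbeads enriched the stained cells before FACS sorting into low and high (top ~1%) gates on anti-HA and streptavidin fluorescence. Each clone's polyreactivity label reflects its gate of origin.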

| Sequence | polyreactivity (PSR sort gate) |
| --- | --- |
| QVQLVESGGGLVQAGGSLRLSCAASGFIFYDYAMGWYRQAPGKERELVAAISRGGSSTYYADSVKGRFTISRDNAKNTVYLQMNSLKPEDTAVYYCAAYRWYEYDYWGQGTQVTVSS | high polyreactivity |
| QVQLVESGGGLVQAGGSLGLSCAASGRTIDYYALGWYRQAPGKERELVAAITWDGSTYYADSVKGRFTISRDNAKITVYLQMISLKPEVTAVYYCAADFYWYLDLYDFWGQGTQVTVSS | high polyreactivity |
| QVQLVESGGGLVQAGGSLRLSCAASGSTSDINAMGWYRQAPGKERELVAVITFSGGSTNYADSVKGRFTISRDNAKNTVYLQMNSLKPEDTAVYYCNADTLTTTRRFNPYDYWGQGTQVTVSS | low polyreactivity |
| QVHLVESGRGLFQAGGSLRLSCAASGRIFPGYAMGWSRQAPGKESELVAGITWRTARTYYAYSVKGRFTISRDIAKNTVYLQMNSLKPEDTAVYYCAAKYARYGRDVIFDYWGQGTEVTVSS | high polyreactivity |
| QVQLVESGGGLVQAGGSLRLSCAASGFTFYYYAMGWYRQAPGKERELVAAISTRDGNTYYADSVKGRFTISRDNAKNTVYLQMNSLKPEDTAVYYCAADYFRYYPYDYWGQGTQVTVSS | low polyreactivity |
| QVQLVESGGGLVQAGGSLRLSCAASGNTFGQYTMGWYRQAPGKERELVAAISWDDSSTNYADSVKGRFTISRDNAKNTVYLQMNSLIPEDTAVYYCAKETELGTQYPYEYDYWGQGTQVTVSS | low polyreactivity |
| QVQLVESGGGLVQAGGSLRLSCAASGFIFYRYAIGWYIQAPGKEREFVASISGSGGRTYYADSVKGRFTISRDNAKNTVYLQMNTLKPEDTAGYYCAADRYSAYLYWDEYWGQGTQVTVSS | high polyreactivity |
| QVQLVESGGGLVQAGGSLRLSCAASGSTLWRYAMGWYRQAPGKEREFVAAISGSGGSTYYADSVKGRFTISRDNAKNTVYLLMNSLKPEDTAVYYCAASRKYRNPDRSMYYWGQGTQVTVSS | high polyreactivity |
| QVQLVESGGGLDQAGGSLRLSCAASGRIFFGNVMGWYRQATGKDSELVAAITKRVGRTYYADSVKGRFTISRDNAKNTVYLQMNSLKPEDTAVYYCNAVTPLSYCRAAPLEMDYWGQGTQVTVSS | high polyreactivity |
| QVKLVESWRGLVPAGVSLRLSCAASVNILDYYAMGWYRQAPGNERELVASITSGGGTYYADSVKGRFTISRDNAKNTVYLQMNSLKPEDTAVYYCNAGPKRTYSPPWRVRYYDWGQGTQVTVSS | high polyreactivity |
| QGQLVESGGGLVQAGGKLRLSCAASGSIFVRYAIGWYRQAPGKERELVAAISTRGDTTYYADSVKGRFTNSRDNAKNTVYLQLNSLKPEDTAVFYCAAVASQYPGPRNYDYWGQGTQVTVSS | low polyreactivity |
| QVQLVESGGGLVQAGGSLRLSCAASGSIFDPNAMGWYRQAPGKERELVAAITSGGGSTYYADSVKGRFTISRDNAKNTVYLEMNSLKPEDTAVYYCNKVFVLPYKFVAWFDYWGQGTQVTVSS | low polyreactivity |
| QVQLVESGGGLVQAGGSLRLSCAASGITFRGNVMGWYRQAPGKERELVAAISGSSGRTYYADSVKGRFTISRDNAKNTVYLQMNSLKPEDTAVYYCAAYYGTKYDYWGQGTQVTVSS | high polyreactivity |
| QVQLVESGGGLVQAGGSLRLICAASGRTLSGYAMGWYRQAPGKDRELVAVITSGGSTYYADSVKGRFTISRDNAKNTVYLQMNSLKPEDTAVYYCAARGSRLYSSWRGVYWGQGTQVTVSS | high polyreactivity |
| QVQIVESGGGLVQAGGSLRLSCAASGRTLSYYAMGWYRQAPGKEREFVAAITGSGGSTYYADSVKGRFTISRDNAKNYVYFQMNSLKPEDTAVYYCNAKGLGVFTVEYYYWGQGTQVTVSS | low polyreactivity |
| QVQLVESGGGLVQAGGSLRLSCAASGSTFYSNAMGWYRQAPGKERELVAGIDTSDGSTNYADSVKGRFTISRDNAKNTVYLQMNSLKPEDTAVYYCAADYTQPGFVSYDYWGQGTQVTVSS | low polyreactivity |
| QVQLVESGGGLVQAGGSLRLSCAASGFTIDSNVMGWYRQAPGKDRELVAAITGDDTTYYADSVKGRFTISRDNAKNTVYLQMNSLKPEDTAVYYCAADETESLEYTAYDMYYWGQGTQVTVSS | low polyreactivity |
| QVQLVESGGGLVQAGGSLRLSCAASGFTFRKNAMGWYRQAPGKERELVAAISSGGGRTYYADSVKGRFTISRDNAKNTVYLQMNSLKPEDTAVYYCNAVRVVRLTFQDWISMDYWGQGTQVTVSS | high polyreactivity |
| QVQLVESGGGLVQAGGSLRLSCAGSGSTFVVYSIGWYRQAPGKERELVAAITRGGGSTYYAYSVKGRFTISRDNAKNTVYLLMNSLKPEDTAVYYCAAYQLPGLRTSFEYWGQGTQVTVSS | low polyreactivity |
| QVQLVESGGGLVQAGGSLRLSCAASGSISPQNVMGWYRQAPGKERELVAAITGGGYTNYADSVKGRFTISRDNAKKTVYLQMNSLKPEDTAVYYCNADYFQDRLDYWGQGTQVTVSS | low polyreactivity |
| QVQLVESGGGLVQAGGSLRLSCAASGSIFPDNTMGWYRQSPGKDRELVGAIDGRGGTTYYADSVKGSFTISRDNAKNTVYLQMNSLKPEDTAVYYCARDIGHSASYDYWGQGTQVTVSS | low polyreactivity |

| Sequence | polyreactivity (PSR sort gate) |
| --- | --- |
| QVQLVESGGGLVQAGGSLRLSCAASGRTFGPYAMGWYRQAPGKERELVAAITSSGGSTYYADSVKGRFTISRDNAKNTVYLQMNSLKPEDTAVYYCNKLYWRQSQDYDYWGQGTQVTVSS | low polyreactivity |
| QVQLVESGGGLVQAGGSLRLSCAASGIIFWGYAMGWYRQAPGKERELVAAISRGGSTYYADSVKGRFTISRDNAKNTVYLQMNSLKPEDTAVYYCAATGVRTWALDYWGQGTQVTVSS | high polyreactivity |
| QVQLVESGGGLVQAGGSLRLSCAASGSIFNRNAMGWYRQAPGKERELVAVISWTGDGTYYADSVKGRFTISRDNAKNTVYLQMNSLKPEDTAVYYCAARWYVQFYHRPVSKRYYWGQGTQVTVSS | high polyreactivity |
| QVQLVESGGGLVQAGGSLRLSCAASGRIYVKNAMGWYRPAPGKERELVAAINWRGTSTYYADSVKGRFTISRDNAKNTVYLQMKSLKPEDTAVYYCNRVLGYPYGVDYWGQGTQVTVSS | high polyreactivity |
| QVQLVESGGGLVQAGGSLRLSCAASGSIFAKNAMGWYRQAPGKERELVAGIDFSGGSTYSADSVKGRFTISRDNAQNTVYLQMNSLKPEDTAVDYCAADWAYKYELDYWGQGTQVTVSS | low polyreactivity |
| QVQLVESGGGLVQAGGSLRLSCAASGRTFLYYAMGWYRQAPGKERELVAGITSGGSTNYADSVKGRFTISRDNAKNTVYLQMNSLKPEATAVYYCAVDQGYSRTADVNYDYWGQGTQVTVSS | low polyreactivity |
| QVQLVESGGGLVQAGGSLRLSCAASGSTFEYYAMGWYRQAPGKERELVAAITGSGDNTYYADSVKGRFTISRDNAKNTVYLQMNSLKPEDTAVYYCAATMRVKGQYGRMYYWGQGTQVTVSS | high polyreactivity |
| QVQLVESGGGLVQAGGSLRLSCAASGINFVYYAMGWYRQAPGTEREMVAAISKSSGRTYYADSVKGRFTISRDYAKNTVYLQMNSLKPEDTAVYYCNARYRLSPPPLEYWGQGTQVTVSS | high polyreactivity |
| QVQLVESGGGLGQAGGSLRLSSAASGRTVSTNDMGWYRHAPGKERELVAAIDFDSDSTYYADSVKGRFTISRDNAKNTVYLQMHSLKPEDTAVYYCAAQYFSYGESYEYWGQGTHVTVSS | low polyreactivity |
| QVQLVESGGGLVQAGGSLRLSCAASGRIIKTNAMGWYRQAPGKERELVAAISSSGGRTYYADSVKGRFTISRDNAKNTVYLQMNSLKPEDTAVYYCAAPSLVSFGYWGQGTQVTVSS | high polyreactivity |
| QVQLVESVGGLVQAGGSLRLSCAPSGSTFYGYAMGWYRQAPGKESELVAAITWGGASTYYADSVKGRFTISRDNAKNTVYLQMNSLKPEDTAVYYCATVGWGYQPYPFGMDYWGQGTQVTVSS | low polyreactivity |
| QVQLVESGGGLVQAGGSLRLSCAASGSIFDSNTMGWYRQAPGKERELVAAITGTGTSTYYADSVKGRFTISRDNAKNTVYLQMNSLKPEDTAVYYCAADLEYKTWWYDYWGQGTQVTVSS | low polyreactivity |
| QVQLGESGGGLVQAGGSLRLTCAASGITFGPYAMGWSRQAPGKERELVAAITWRGGSTYYADSVKGRFTISRDNAKNTVYLQMNSLKPEDTAVYYCNAKTEYGSPRGYGSWGQGTQVTVSS | low polyreactivity |
| QVQLVESGGGLVQAGGSLRLSCAASGSTFGINDMGRYRQAPGKERELVASITRRGGTTYYADSVKGRFTISRDNAKNTVYLHMNSLKPEDTAVYYCNKTYRYGTPLYDYWGQGTQVTVSS | high polyreactivity |
| QVQLVESGGGLVQAGGSLRLSCAASGIIFASNGMGWYRQAPGKERELLAAISSGGSTNYADSVKGRFTISRDNAKNTVYLQMNSLKPEDTAVYYCSTSGPQYYSRNFDYWGLGTQVTVSS | low polyreactivity |
| QVQLVESGGGLVQAGGSLRLICAASGFTFASYGMGWYRQARGKERELVAAISWSGGRTYYADSVKGRFTISRDNATNTVYLQMNSLKPEDSAVYYSNAYWNPASKYDYWGQGTQVTVSS | high polyreactivity |
| QVQLVESGGGLVQAGGSLRLSCAASGNTFFVYAMGWYRQAPGKERELVADINWSTGSTYYADFVKGRFTISRDNAKNTVYLQMNSLKPEDTAVYYCAAEAYYYVIFHGSWYTDDYWGQGTQVTVSS | low polyreactivity |
| QVQLVESGGGLVQAGGSLRLSCAASGRTFKFYAMGWYRQAPGKERELVATISSRGGNTFYADSVKGRFTISRDNAKNTVYLQMNSLIPEDTAVYYCAARRGVRKYPSAGYEYWGQGTQVTVSS | high polyreactivity |
| QVQLVESGGGLVQAGGSLRLSCAASGSTFVVNAMGWYRPAQGKERELVAAISRSGTSTYYADSVKGRFTISRDNAKKTVYLQMNSLKPEDSAVYYCNAVGSYYPPDYWGQGTQVTVSS | high polyreactivity |
| QVQLVESGGGLVQAGGSLRISCAASGITFEGYAMGWYRQAPGKESEFVAAITSTGTSTRYADSVKGRFTISRDNAKNTVYLQMNSLKPEDTAVYYCAAVARRLNTGKYYYWGQGTQVTVSS | high polyreactivity |
